Test results taken from the Human Domainome abundance scans (Beltran et al. 2025).
± gives the uncertainty stated by the source.

B1: Histone-lysine N-methyltransferase SETD2, residues 2382 to 2430; numbered along this chain, Q9BYW2 (parent)
chain: SPPKPKTIVLPPNWKTARDPEGKIYYYHVITRQTQWDPPTWESPGDDAS

Variants of: B1
Assay: abundance fitness (aPCA) (normalised: wild type 0, dead -1); higher = more abundant; growth selection in yeast, the domain comes from the species named
Details: Homo sapiens

Abundance fitness of substitutions, site by site:
Q35: E -0.547 ± 0.09 | C -0.337 ± 0.085 | F -0.683 ± 0.13 | D -0.869 ± 0.24 | A -0.155 ± 0.053 | K -0.351 ± 0.1 | T -0.052 ± 0.046 | V -0.212 ± 0.036 | Y -0.489 ± 0.038 | H -0.083 ± 0.099 | P -0.535 ± 0.17 | W -0.722 ± 0.12 | G -0.735 ± 0.047 | L -0.364 ± 0.065 | S -0.062 ± 0.032 | N -0.875 ± 0.39 | I -0.505 ± 0.14 | M -0.074 ± 0.069
T34: L -0.342 ± 0.047 | E -0.394 ± 0.062 | K -0.605 ± 0.29 | P -0.29 ± 0.068 | N -0.493 ± 0.22 | F -0.059 ± 0.061 | V -0.075 ± 0.052 | A -0.296 ± 0.067 | R 0.109 ± 0.045 | I -0.149 ± 0.079 | W -0.18 ± 0.036 | D -0.774 ± 0.055 | Y -0.52 ± 0.16 | C -0.109 ± 0.1 | Q -0.111 ± 0.042 | M 0.188 ± 0.077 | G -0.379 ± 0.039 | H -0.059 ± 0.064
Y27: Q -0.136 ± 0.081 | P -0.898 ± 0.089 | W -0.163 ± 0.062 | M -0.339 ± 0.046 | H -0.293 ± 0.041 | K -0.261 ± 0.082 | T -0.185 ± 0.075 | G -0.747 ± 0.067 | E -0.3 ± 0.038 | S -0.433 ± 0.052 | V -0.173 ± 0.049 | F -0.487 ± 0.15 | C -0.543 ± 0.093 | D -0.446 ± 0.11 | R -0.265 ± 0.052 | L -0.534 ± 0.054
I30: P -0.08 ± 0.042 | W -0.447 ± 0.09 | H -0.068 ± 0.088 | Q -0.268 ± 0.11 | Y -0.244 ± 0.12 | N -0.046 ± 0.12 | C -0.498 ± 0.04 | E -0.307 ± 0.044 | R -0.018 ± 0.046 | S -0.344 ± 0.06 | A -0.314 ± 0.057 | G -0.313 ± 0.041 | T -0.013 ± 0.07 | F -0.361 ± 0.2 | M -0.19 ± 0.034 | D -0.21 ± 0.08 | K -0.144 ± 0.052 | L -0.087 ± 0.046
S43: F -0.375 ± 0.071 | N -0.369 ± 0.13 | H -0.237 ± 0.11 | I -0.095 ± 0.041 | D 0.078 ± 0.075 | W -0.23 ± 0.088 | L -0.064 ± 0.042 | C -0.471 ± 0.11 | Y -0.263 ± 0.097 | G -0.15 ± 0.05 | V -0.045 ± 0.055 | A -0.048 ± 0.041 | P -0.321 ± 0.094 | E 0.193 ± 0.056 | Q 0.091 ± 0.08 | K 0.145 ± 0.042 | M -0.102 ± 0.076 | T -0.061 ± 0.082 | R -0.11 ± 0.042
W41: H 0.117 ± 0.081 | D 0.06 ± 0.1 | E 0.166 ± 0.046 | C 0.04 ± 0.045 | M 0.16 ± 0.033 | L 0.078 ± 0.033 | K 0.165 ± 0.041 | A 0.07 ± 0.058 | R 0.091 ± 0.036 | P -0.058 ± 0.095 | G 0.034 ± 0.051 | Y 0.338 ± 0.084 | Q 0.249 ± 0.04 | S 0.195 ± 0.042 | V 0.077 ± 0.035 | F 0.334 ± 0.092 | I 0.05 ± 0.069
W36: S 0.171 ± 0.033 | I 0.139 ± 0.064 | C -0.08 ± 0.045 | A -0.239 ± 0.07 | L -0.082 ± 0.032 | F 0.321 ± 0.062 | Y 0.203 ± 0.042 | T -0.05 ± 0.046 | H 0.33 ± 0.079 | R 0.139 ± 0.045 | Q -0.139 ± 0.048 | K -0.006 ± 0.056 | M -0.382 ± 0.11 | E -0.027 ± 0.037 | G -0.152 ± 0.039 | V 0.083 ± 0.042 | D -0.015 ± 0.032
P39: N -0.391 ± 0.23 | T -0.98 ± 0.24 | H -0.748 ± 0.27 | E -1 ± 0.21 | C -0.812 ± 0.24 | A -0.918 ± 0.11 | V -0.894 ± 0.059 | Q -0.659 ± 0.044 | R -0.96 ± 0.13 | L -0.892 ± 0.14 | I -0.835 ± 0.22 | S -0.719 ± 0.13 | W -0.987 ± 0.076 | G -1.04 ± 0.14 | M -0.908 ± 0.17
P38: A -0.126 ± 0.036 | D -0.836 ± 0.15 | V -0.108 ± 0.034 | R -0.251 ± 0.034 | I -0.111 ± 0.04 | M -0.043 ± 0.077 | Q -0.255 ± 0.069 | N -0.651 ± 0.33 | Y -0.228 ± 0.11 | F -0.143 ± 0.094 | L -0.396 ± 0.052 | W -0.184 ± 0.059 | G -0.693 ± 0.051 | E -0.493 ± 0.12 | H -0.039 ± 0.14 | T -0.398 ± 0.15 | C -0.221 ± 0.11 | K -0.121 ± 0.044
T40: M 0 ± 0.044 | W -0.232 ± 0.035 | V 0.057 ± 0.048 | P 0.017 ± 0.076 | G 0.064 ± 0.054 | E 0.12 ± 0.043 | C 0.151 ± 0.061 | L -0.071 ± 0.042 | I -0.629 ± 0.17 | D -0.342 ± 0.14 | N 0.045 ± 0.1
